Source: the DeepSol protein solubility set

Assay: soluble on expression in E. coli; label from the status in PepcDB or PDB records

Question: For “LSPLEARVIGCLIEKEVTTPDHYPLTLNSLTTACNQKSNREPVLNLSEAEVQDTVEGLIARRLVSDESSFNSRTSKYQHRFCNTEFGDLKLNQQELGLICCLLLRGAQTPGELRTRTNRLCTFTDVKETEAVLERLANRDSGALVVKLPREPGKRESRYHHLFCGEVDMAAFATSSDNE”, which “soluble on expression in E. coli” value is on record?
Answer: not soluble

Question: Which “soluble on expression in E. coli” value does the source give for “LSSPADSYNEGVKLQPQEISPPPTANLDRSNDKVYENVTGLVKAVIEMSSKIQPAPPEEYVPMVKEVGLALRTLLATVDETIPLLPASTHREIEMAQKLLNSDLGELINKMKLAQQYVMTSLQQEYKKQMLTAAHALAVDAKNLLDVIDQARLKMLGQTRPH” here?
Answer: soluble

Question: For “LTAGKVDIPTPDGKMPAYRAAPAGKKDLPTLLVVSEIFGVHEYIQDVCRRLARLGYQAVAPELFARYGDPTGYTDIGRLRAEVVDKAGDRQVLADLDAAAAWAAANGGNSSRLGILGFCWGGRIVWLYAAHNPGLKAGAAWYGQLGGQASELKPRSVLESIGDLKAPVLGAYGGKDAGIPLSDVDRMRLALAKGPRAARDSRIDVYPEAPHAFHADYRPSYRKAEAEQAWQRMLDWFGQH”, which “soluble on expression in E. coli” value is on record?
Answer: not soluble

Question: With “LVIVTDPHQRIEWVNAAFEQQTGHSGPSVRGQPLCAVLQGEPAPGGCGDRLRAMLAEGRTARAEVEATAACGRRFWLDVSLQPLLDDEGALDGYMAVASDIT” as the sequence, how does the “soluble on expression in E. coli” value read?
Answer: not soluble

Question: For “LVLEGGGMRGVFTCGVLDYLMDHDIRFPYAIGVSAGACNGLSYASRQRGRAKFSNIDLLEKYNYIGLKHLLRKRNILDFDLLFNEFPEHILPYDYDTYFASPERFVMVTTNCMTGEANYFEEKRDKSRVIDIVRASSSLPFVCPVTYVDGVPMLDGGIVDSIPLQRAIADGYTRNVVILTRNRGYRKDTKDIRIPSFVYRKYPKLREALSRRCAVYNEQLEMVEQMEDEGKIIVIRPQKPVMVDRIERDVQKLTEFYEEGYDCARNLFEF”, which “soluble on expression in E. coli” value is on record?
Answer: not soluble

Question: Which “soluble on expression in E. coli” value does the source give for “LWLASDLHLGPATPATAEAFLGLLQAAADEASALLLPGDIFDAWIGDDVIRAAPPWLAAVLQGIRAAAGRIPVYLGRGNRDFLIGQELADALGAHLLPEPVLLETDYGRILLTHGDEYCTDDSAYQQFRAMVRNPQWQAQFLAMSIPERLAMAEQARGESQAANQAKSMEIMDVNPASVEAALREADVDVLVHGHTHRPARHVL” here?
Answer: not soluble

Question: With “LYAFFKTMPKGGELHYHLAGGAYPETMLALAANGNYCLDKHTFAVSKDSSHCEGVNVKEVFNNPELYSNIIKDWSMKDFIPGKESGHDHFFNGFIKYMPIVFDYQPQLLADIVQRAAQQKAQYLEIMTIPDNAQSLTYGDLIKDIPSYDQKRRLLLANKDFQSNIQNTVLESDRILTKASQELRCNENPASDSCHVKIKFLYYVLREQPVDNVFAQALNAFEAVSKSKGNLIGVNLVQPEDGIISLRDYQKHMSIFEYLHRIYPNVPITLHAGELSPQAVTPENLSHHIRDALLIGHAQRIGHGVDIGYENNAEDTLKYMANHHIPVEINLISNLKILDISGSNHPLNYYLSHNVPVVLSTDDEGVLRTDLTQQYVEAAKEHGLSYQQLKQINRNTLTYSFLPGKSIWANADKAELVPDCHDLGSKSCQKFIAHNEKAKLQWNLEQQLIAFEKS” as the sequence, how does the “soluble on expression in E. coli” value read?
Answer: not soluble

Question: Which “soluble on expression in E. coli” value does the source give for “MAAAPFDPAEVFQVFGMRRVDSASFDEQVVQAPGDDLRCVFLWGQDCYNCGIFKQTALLQRQALLALELSWFEADVYADEALGRRFSLHGVPTFVLYRSGKRLGRVTGWPGLPQFSAAMQRLRDGT” here?
Answer: not soluble

Question: With “MAADISESSGADCKGDPRNSAKLDADYPLRVLYCGVCSLPTEYCEYMPDVAKCRQWLEKNFPNEFAKLTVENSPKQEAGISEGQGTAGEEEEKKKQKRGGRGQIKQKKKTVPQKVTIAKIPRAKKKYVTRVCGLATFEIDLKEAQRFFAQKFSCGASVTGEDEIIIQGDFTDDIIDVIQEKWPEVDDDSIEDLGEVKK” as the sequence, how does the “soluble on expression in E. coli” value read?
Answer: not soluble

Question: Which “soluble on expression in E. coli” value does the source give for “MAAEKTLRTCEKGHEYYKSSDCPTCPTCEKERTPQEGFLSLLSAPARRALEHHGIHTVEELSKYSEKEILKLHGMGPASLPKLRKALEESGLSFK” here?
Answer: not soluble

Question: For “MAAETTSEDVKLAASFKDASKLGIDQKSGIPRKVKGTLTWRLELKRTNDGFWISAFFKGASKKKISIKAEFTLLCAGQEPLNKTEKKDSDCTKKSTEYEVCAMFTECETENHFEKGSDLRFEVELTIVMENSSKKSSVKPKPEAKQEPTKENDKIVGSESMMLDQLTSKLFLKASEGARIISNEIINDLLDIANRFDVPEVKTKCEQFLLEDLKKALKEKMETAEKYELDCLQAVKSADDALANSLEKLAIK”, which “soluble on expression in E. coli” value is on record?
Answer: not soluble

Question: With “MAAGSGVVPPPLGAGLCTVKVEEDSPGNQESSGSGDWQNPETSRKQFRQLRYQEVAGPEEALSRLWELCRRWLRPELLSKEQIMELLVLEQFLTILPQELQAYVRDHSPESGEEAAALARTLQRALDRASPQVRLEWTLHGTREMA” as the sequence, how does the “soluble on expression in E. coli” value read?
Answer: soluble

Question: For “MAAHQLSDFQRNKILRVFNTFYDCNHDGVIEWDDFELAIKKICNLHSWPTDGKKHNEARATLKLIWDGLRKYADENEDEQVTKEEWLKMWAECVKSVEKGESLPEWLTKYMNFMFDVNDTSGDNIIDKHEYSTVYMSYGIPKSDCDAAFDTLSDGGKTMVTREIFARLWTEYFVSNDRGAKGNHLFGTLKL”, which “soluble on expression in E. coli” value is on record?
Answer: soluble

Question: Which “soluble on expression in E. coli” value does the source give for “MAAMRKALPRRLVGLASLRAVSTSSMGTLPKRVKIVEVGPRDGLQNEKNIVSTPVKIKLIDMLSEAGLSVIETTSFVSPKWVPQMGDHTEVLKGIQKFPGINYPVLTPNLKGFEAAVAAGAKEVVIFGAASELFTKKNINCSIEESFQRFDAILKAAQSANISVRGYVSCALGCPYEGKISPAKVAEVTKKFYSMGCYEISLGDTIGVGTPGIMKDMLSAVMQEVPLAALAVHCHDTYGQALTNTLMALQMGVSVVDSSVAGLGGCPYAQGASGNLATEDLVYMLEGLGIHTGVNLQKLLEAGNFICQALNRKTSSKVAQATCKL” here?
Answer: soluble

Question: Which “soluble on expression in E. coli” value does the source give for “MAANSLPQDISDVELVHLARAAMKRAHCPYSKFPVGAALLTESGEIVQGCNVENASYGGTICAERSAIVSAVSQGYTKFRAIAVVTELSEPASPCGLCRQFLVEFGDYKVVVGTASNNKILITSTRALLPFAFTPESLDTFEQEKASEAKGLKQDDATEHNVTVVS” here?
Answer: not soluble

Question: Which “soluble on expression in E. coli” value does the source give for “MAAPSAGSWSTFQHKELMAADRGRRILGVCGMHPHHQETLKKNRVVLAKQLLLSELLEHLLEKDIITLEMRELIQAKVGSFSQNVELLNLLPKRGPQAFDAFCEALRETKQGHLEDMLLTTLSGLQHVLPPLSCDYDLSLPFPVCESCPLYKKLRLSTDTVEHSLDNKDGPVCLQVKPCTPEFYQTHFQLAYRLQSRPRGLALVLSNVHFTGEKELEFRSGGDVDHSTLVTLFKLLGYDVHVLCDQTAQEMQEKLQNFAQLPAHRVTDSCIVALLSHGVEGAIYGVDGKLLQLQEVFQLFDNANCPSLQNKPKMFFIQACRGDETDRGVDQQDGKNHAGSPGCEESDAGKEKLPKMRLPTRSDMICGYACLKGTAAMRNTKRGSWYIEALAQVFSERACDMHVADMLVKVNALIKDREGYAPGTEFHRCKEMSEYCSTLCRHLYLFPGHPPT” here?
Answer: not soluble

Question: Which “soluble on expression in E. coli” value does the source give for “MAAQQRDCGGAAQLAGPAAEADPLGRFTCPVCLEVYEKPVQVPCGHVFCSACLQECLKPKKPVCGVCRSALAPGVRAVELERQIESTETSCHGCRKNFFLSKIRSHVATCSKYQNYIMEGVKATIKDASLQPRNVPNRYTFPCPYCPEKNFDQEGLVEHCKLFHSTDTKSVVCPICASMPWGDPNYRSANFREHIQRRHRFSYDTFVDYDVDEEDMMNQVLQRSIIDQ” here?
Answer: soluble

Question: For “MAAQRIRAANASGLPRCKSEGTLIDLSEGFSETSFNDVKVPSPSALLVDNPTPFGNAKEVIAIKDYCPNNFTTLKFSKGDHLYVLDTSGGEWWYAHNTTEMGYIPSSYVQPLNYRNSTLSDSGMIDNLPDSPEEVAKELDLLGGGWTDDQKESGRPYSNNPFWNGVRTNPFLNGNAQPSTDELNPKSTVDLLLFDTGTSSFTESSSATTNSTGNIFDELPATNGLQVEQPVKRDNPFFRSKRSYSLSELSVLQAKSDAPPTSSFFTGLKSPVPEQFQSREDFRTAWLNHRKLARSCHDLDLLGQSPGWGQTQAVETNIVCKLDSSGGSVQLPDTNISIHVPEGHVAPGETQQISMKALLDPPLDLNSDRSTSVSPVVEVKLSNLEVSTFIILEMKVSAEVKGDIFSKSTVVLQCLRSDSKEGPYVPIPLAYSYGDTIQVQLDNLEPCMYLAIVAQGPNILYPSTVWDFINKRVTVGLYGPKHIHPSFKTVVTIFGHDCAPKTLLVSEVTRQAPSPAPVALQLWGKHQFILSRPQDLRVCMFSNMTNYEVKANEQARVVRGFQMKLGKVSRLIFSVISQNPNELSDFTLRVQVKDDQDTILTQFCVQTPQPPPKSAIKPSGQRRFLKKNEVGKIILSPFVVTTKYPTFQDRPVSSLKFGKLLKTVVRQNKSHYLLEYKKGDVVALLSEERIRLKGQLWTKEWYIGYYQGKVGLVHTKNVLVVGKARPSLFSGPELSTSVLLEQILRPCKFLTYIYASVRTLLMENISSWRAFADALGYGNLPLTFFCRAELDSEPERVASVLEKLKEDCNNPDNKDRKSFQKELVMALLKMDCQGLVVRLIQDFVLLTTAVEVAQRWRELAEKLAKVSKQQMDAYESPHRDRNGVVDSEAMWKPAYDFLLTWSHQIGDSYRDVIQELHIGLDKMKNPITRRWKHLTGTLILVNSLDILRAAAFSPADHDDFVI”, which “soluble on expression in E. coli” value is on record?
Answer: soluble

Question: Which “soluble on expression in E. coli” value does the source give for “MAARHHAFILAGTGSGCGKTTVTLGLLRLLQKRALRVQPFKVGPDYLDTGWHTAICGVASRNLDSFMLPPPVLNALFCEQMRQADIAVIEGVMGLYDGYGVDPNYCSTAAMAKQLGCPVILLVDGKAVSTSLAATVMGFQHFDPTLNLAGVIVNRVTSDAHYQLLKNAIEHYCSLPVLGYVPPCDGVALPERHLGLITARESLVNQQSWHDFAATLEQTVDVDALLSLSVLSALPAGMWPERPDNTAGAGLTLALADDEAFNFYYPDNIDLLERAGVNIVRFSPLHDRALPDCQMIWLGGGYPELYAADLAANTVMLKHLRAAHQRGVAIYAECGGLMYLGSTLEDSGGEIHQMANIIPGHSKMGKRLTRFGYCEAQAMQPTLLAAPGEIVRGHEFHYSDFIPETPAVMACRKVRDGRVLQEWTGGWQTGNTFASYLHVHFAQRPEMLQHWLAAARRVL” here?
Answer: not soluble

Question: With “MAARKVRIQTTINSNVYEHYIKKLLPEYGQLNKLIEEAVKQLFEIRENELSKLDRLRAKMMREAGVIAIGFESAEKALKGEIEKVLSENEINFLLEWYYGRPIEKIAFEEAIEFMRTALIAMNWAVDAKVNLEGEETHIMVRSNLGRGLAELLCMVIKHFFERNYGVEVRFSVYPGGYTLSFRHVSTDAYPCSSVRE” as the sequence, how does the “soluble on expression in E. coli” value read?
Answer: not soluble

Question: For “MAASFVAVQGNADHGVKLKSGLTSAHRLQRRLSSDLRPLAAADLTGDSLPSEERRRTSSSTPDESLRQVMYLNCWAQG”, which “soluble on expression in E. coli” value is on record?
Answer: soluble

Question: Which “soluble on expression in E. coli” value does the source give for “MAASLRLLGAASGLRYWSRRLRPAAGSFAAVCSRSVASKTPVGFIGLGNMGNPMAKNLMKHGYPLIIYDVFPDACKEFQDAGEQVVSSPADVAEKADRIITMLPTSINAIEAYSGANGILKKVKKGSLLIDSSTIDPAVSKELAKEVEKMGAVFMDAPVSGGVGAARSGNLTFMVGGVEDEFAAAQELLGCMGSNVVYCGAVGTGQAAKICNNMLLAISMIGTAEAMNLGIRLGLDPKLLAKILNMSSGRCWSSDTYNPVPGVMDGVPSANNYQGGFGTTLMAKDLGLAQDSATSTKSPILLGSLAHQIYRMMCAKGYSKKDFSSVFQFLREEETF” here?
Answer: soluble
